Experimental data from the supplement of paper PMC10567573.

B1: POLD4 (parent)
chain: ITDSYPVVKRREGPAGHSKGELAP
B2: MYOZ1 (parent)
chain: FSDSSMDHFQKFLPTVGGQLGTAG

Variants of: B1
Assay: protein stability index of a GFP-peptide fusion (GPS, HEK-293T) (PSI 1-6); higher = more stable
Details: c terminus: a fixed tail appended
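Note: lentivirally expressed fusions sorted by FACS into six bins by GFP to DsRed ratio, PSI derived from sequencing read proportions per bin multiplied by bin number.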

Protein stability index, by site and new letter:
Y5: S 4.91; D 5.56; L 4.59; Q 5.68; M 3.5; V 4.23; N 4.98; H 5.39; I 4.84; E 5.69; W 3.08; T 3.5; K 5.3; R 4.72; P 5.13; C 3.78
H17: D 2.31; K 4.05; L 3.49; Y 2.66; F 3.01; T 3.91; Q 3.51; N 3.54; R 3.35; S 3.78; P 2.5; C 2.06; E 4.36; I 3.49; V 3.2; A 2.97
P14: Q 3.89; H 3.84; D 2.94; E 4.1; Y 2.81; C 3.14; I 3.1; M 3.06; W 2.84; T 3.57; A 3.82; V 1.93; R 2.46; K 2.97; F 3.28; L 3.24; N 3.55; G 2.98; S 2.43
T2: D 4.35; P 3.71; L 4.98; V 3.36; G 3.61; W 3.37; I 4.58; H 4.41; M 3.78; S 3.69; Y 4.27; A 2.43; F 4.27
G13: I 2.7; N 2.78; D 3.94; F 2.45; S 3.22; Y 3.11; L 2.75; Q 3.32; W 2.5; E 3.86; R 3.7; V 2.62; H 3.24; T 3.19; P 4.43; A 2.92; C 3.87
R11: H 3.28; Q 4.37; P 3.28; G 3.79; L 2.98; W 3.46; C 3.68; E 5.14; Y 3.36; M 2.87; A 3.23; V 2.69; I 3.76; T 3.33; K 3.54; S 3.23; D 4.79; F 2.43; N 3.28
D3: T 4.2; N 2.68; M 3.2; G 4.07; F 3.39; C 1.78; W 1.99; Y 2.74; L 2.46; H 2.97; K 3.89; S 2.68; I 1.09; V 2
K9: E 4.83; I 3.8; W 4.14; H 2.72; M 4.06; V 4.06; C 3.95; A 4.65; P 4.26; G 5.01; S 4.41; T 4.71; Y 4.15; F 3.1; D 4.63; R 3.25
P6: A 3.48; D 5.12; T 4.55; N 4.51; F 3.52; I 4.17; W 3.4; S 3.53; E 4.33; L 3.75; G 4.67; H 5; R 2.94
V7: W 4.17; F 3.45; H 4.4; Q 3.79; L 3.44; N 4.2; Y 4.14; A 4.02; K 3.56; P 5.22; E 5.27; G 4.93; I 3.42; T 4.18; C 3.63; D 4.8; S 4.76
S4: P 4.58; I 3.51; E 4.58; T 2.56; R 3.87; Q 3.81; Y 2.57; D 5.06; H 2.67; N 4.16
R10: Y 4.05; K 2.39; G 4.21; Q 3.8; P 4.68; M 3.16; H 4.33; E 4.8; N 3.92; S 3.89; W 3.07; A 4.56; V 3.94; I 3.38; T 3.6; F 3.57; D 4.98; L 3.64; C 3.79
I1: C 4.11; Y 2.62; V 4.4; S 5.09; L 3.44; A 4.82; M 2.72; P 3.23; F 1.59; Q 4.43; D 5.18; H 3.73; R 4.81; T 4.79; G 4.68
V8: I 3.26; H 4.07; C 3.79; S 4.84; N 4.21; W 3.16; F 4.32; M 3.98; P 4.35; Q 3.1; E 5.31; K 3.2; Y 4.34; R 2.88; D 5.21; T 4.42
G16: Q 3.5; I 2.72; H 3.08; M 2.56; Y 2.39; E 3.83; C 3.52; K 3.07; P 3.28; D 3.77; W 2.66; S 2.51; N 2.82; L 2.49; R 3.64; A 4.75; T 3.62; F 3.33; V 2.57
A15: D 2.81; S 2.8; L 3.32; P 3.03; F 2.41; H 2.75; N 2.97; M 3.08; V 3.23; T 2.22; R 3.27; Y 3.75; C 2.8; Q 2.94; E 3.33; I 2.58; K 3.45
K19: M 2.9; P 4.07; H 3.56; S 3.46; V 3.37; E 3.28; D 3.96; R 2.81; T 3.62; F 2.48; L 2.81; N 2.59; Q 3.16; Y 3.06; G 3.89; I 2.79
G20: F 2.81; T 2.67; I 2.99; M 3.49; L 3.11; E 2.93; A 3.06; Q 2.41; H 2.22; K 2.62; P 4; N 4.09; W 2.83; V 3.07; C 3.79; S 2.58; D 3.55
S18: L 2.91; C 3.17; D 4.01; N 2.22; V 2.1; W 2.8; H 3.35; K 3.02; Y 2.46; T 2.87; E 3.26; A 3.01; R 3.14; I 3.44; G 3.94; Q 3.65; P 2.84; M 2.68; F 2.91
E12: F 1.86; V 2.72; A 2.52; K 3.11; Q 4.16; L 2.87; M 2.87; R 2.65; I 3.53; S 2.69; N 2.85; Y 2.48; W 2.88; C 2.1; G 3.01; T 3.41; D 3.08; H 2.72; P 3.26

Variants of: B2
Assay: as above
Details: c terminus: a fixed tail appended

Protein stability index: each site, then its substitutions
G24: Y 1.2; V 2.42; T 1.89; W 1.23; Q 1.98; S 1.98; R 2.22
